The values below come from patent US11697680B2, “Anti-GP73 antibodies and immunoconjugates” (CUREAB GMBH, priority 2016, dated 2023).

For experiment [1], the system named is HuH7 cells. The experiment is described as follows: Efficacy of G2-2-ADC in HuH7 cells (cell viability, PrestoBlue). The note with it: medium changed after one hour, viability after 98 hours, read-out: IC50 as determined by drug component. Format: cell-based, human. On the procedure:
FIG. 14 An antibody drug conjugate consisting of MMAF attached to a Malamide exchange linker linked to G2-2 was added to HuH7 cells.
An antibody drug conjugate consisting of MMAF attached by a malameide exchange linker to G2-2 was added to the cell culture medium of HUH7 cells in different concentrations. Medium was changed after one hour. Cell viability was analyzed after 98 hours using PrestoBlue reagent (ThermoFischer).

For experiment [2], the target named is T1, GP73 peptide: […] (Homo sapiens, UniProt Q8NBJ4).
T1 construct: GP73 peptide: […]
The experiment is described as follows: Biacore surface plasmon resonance, data fit for 1:1 binding. The note with it: Biacore 1:1 binding fit; GP73 peptide SSRSVDLQTRIMELEGRVRR
On the procedure:
In one embodiment, Kd is measured using surface plasmon resonance assays using a BIACORE®-2000 or a BIACORE®-3000 (BIAcore, Inc., Piscataway, N.J.) at 25° C. with immobilized antigen CM5 chips at […] response units (RU). Briefly, carboxymethylated dextran biosensor chips (CM5, BIACORE, Inc.) are activated with N-ethyl-N′-(3-dimethylaminopropyl) carbodiimide hydrochloride (EDC) and N-hydroxysuccinimide (NHS) according to the supplier's instructions. Antigen is diluted with 10 mM sodium acetate, pH 4.8, to 5 μg/ml (−0.2 μM) before injection at a flow rate of 5 μl/minute to achieve approximately 10 response units (RU) of coupled protein. Following the injection of antigen, 1 M ethanolamine is injected to block unreacted groups. For kinetics measurements, two-fold serial dilutions of antibody (0.58 nM to 200 nM) are injected in PBS with 0.05% polysorbate 20 (TWEEN-20™) surfactant (PEST) at 25° C. at a flow rate of approximately 25 μl/min. Association rates (kon) and dissociation rates (koff) are calculated using a simple one-to-one Langmuir binding model (BIACORE® T100 Evaluation Software) by simultaneously fitting the association and dissociation sensorgrams. The equilibrium dissociation constant (Kd) is calculated as the ratio koff/kon. See, e.g., Chen et al., J. Mol. Biol. 293:865-881 (1999). If the on-rate exceeds […] s^−1 by the surface plasmon resonance assay above, then the on-rate can be determined by using a fluorescent quenching technique that measures the increase or decrease in fluorescence emission intensity (excitation=295 nm; emission=340 nm, 16 nm band-pass) at 25° C. of a 20 nM anti-antigen antibody in PBS, pH 7.2, in the presence of increasing concentrations of antigen as measured in a spectrometer, such as a stop-flow equipped spectrophometer (Aviv Instruments) or a 8000-series SLM-AMINCO™ spectrophotometer (ThermoSpectronic) with a stirred cuvette.

The target of experiment [3] is T2, peptide AA 36-55 of GP73 (Homo sapiens, UniProt Q8NBJ4). Put plainly: Competition peptide ELISA with HRP-labeled antibodies. The class given is binding. Conditions: unlabeled competing antibody at high concentration; binding antibody G2-2-HRP. On the procedure:
A peptide ELISA was performed using horse radish peroxidase labeled G2-1 (G2-1-HRP) or G2-2 (G2-2-HRP) as binding antibodies and G2-1 or G2-2 as competing antibodies. […] Binding to peptide AA 36-55 of GP73 served as positive control (filled circle), negative control was binding to an unrelated peptide (filled diamond) as described in Example 5.
(§1) ELISA was carried out in 96 well plates coated overnight with biotinylated peptide and blocked with 2% gelatine. Horse radish peroxidase labeled antibodies G2-1 (G2-1-HRP) or G2-2 (G2-2-HRP) were applied and incubated for 1.5 hours. For competition testing non labeled G2-1 or G2-2 was added at high concentration. For pH dependent binding the antibodies were applied in phosphate buffer pH 4.4, 5.4, 6.4 or 7.4. After extensive washing a chromogenic substrate (TMB Amersham) was added to detect peroxidase. The reaction was stopped and absorbance was read at 450 nm.
On the technique in general: In an ELISA, binding on a coated surface is turned into a signal by an enzyme label.

Experiment [4] has as its target T2, peptide AA 36-55 of GP73. Put plainly: pH dependent peptide ELISA. The class given is binding. The note with it: pH range of 7.4 to 5.4. On the procedure: A peptide ELISA was performed to test for pH dependency of binding to peptide AA 36-55 of GP73.
as §1

The target of experiment [5] is T3, Furin cleavage of recombinant GP73-HIS (Homo sapiens, UniProt Q8NBJ4).
T3 construct: purchased Biolegend
T3 sequence (Q8NBJ4 36-401 limits assumed): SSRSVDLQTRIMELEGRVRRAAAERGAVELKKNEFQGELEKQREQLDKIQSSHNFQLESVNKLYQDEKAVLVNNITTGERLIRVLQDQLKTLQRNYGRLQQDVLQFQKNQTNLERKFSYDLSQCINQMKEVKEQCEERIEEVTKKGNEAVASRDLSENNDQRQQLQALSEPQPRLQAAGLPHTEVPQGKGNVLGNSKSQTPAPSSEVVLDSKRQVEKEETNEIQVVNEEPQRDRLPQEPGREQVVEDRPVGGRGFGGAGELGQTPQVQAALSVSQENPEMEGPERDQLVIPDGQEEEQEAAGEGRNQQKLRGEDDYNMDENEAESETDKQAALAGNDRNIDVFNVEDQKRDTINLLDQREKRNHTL
The experiment is described as follows: Furin cleavage of GP73-HIS depending on antibody binding (capture ELISA). Format: biochemical. The note with it: 3 U and 1.5 U of Furin; 2 hours at 30° C. The text has this: Measurements of Furin cleavage of GP73 using a range from 0 units to 3 units of Furin are depicted.
Testing of Furin cleavage exploits the fact that antibodies G2-1 and G2-2 bind GP73 N-terminal of or at the furin cleavage site 56R whereas recombinant GP73 with C-terminal HIS tag (GP73-HIS) is detected by anti HIS antibody at the C-terminus of GP73. Plate bound anti human IgG can capture G2-1 or G2-2, which binds GP73-HIS. If furin cleavage occurs in a setting where G2-1 or G2-2 have already bound to GP73-HIS, only N-terminal part of GP73 will reside at the G2 antibodies. In contrast, if furin cleavage is hindered by G2 antibodies, GP73-HIS can be detected by an anti HIS antibody.
Furin cleavage was carried out in 1.5 ml tubes. To test if G2 antibodies can hinder furin cleavage recombinant GOLPH-HIS protein (Biolegend) and G2-2 or G2-1 was incubated for 2 hours in 100 mM HEPES and 1 mM CaCl2 buffer pH 7.5 to allow antibody binding to GP73. […]
From each reaction 2×100 ul were transferred to wells of a 96 well plate that had been coated over night with anti human IgG and was blocked with 1% gelatine in PBS. After one hour incubation at room temperature the plate was washed, incubated with anti HIS-hrp antibody for one hour, washed again, incubated with a chromogenic substrate (TMB Amersham) to detect peroxidase, stopped and read at 450 nm.

Experiment [6] deals with T4, sGP73 (GP73 AA56 to 401) (Homo sapiens, UniProt Q8NBJ4).
T4 construct: contains sGP73-10×His, encompassing GP73 AA56 to 401 (sGP73); made in house; host or cells: 293HEK cells, isolated from the supernatant by IMAC
T4 sequence (Q8NBJ4 with tags, fused parts or gaps): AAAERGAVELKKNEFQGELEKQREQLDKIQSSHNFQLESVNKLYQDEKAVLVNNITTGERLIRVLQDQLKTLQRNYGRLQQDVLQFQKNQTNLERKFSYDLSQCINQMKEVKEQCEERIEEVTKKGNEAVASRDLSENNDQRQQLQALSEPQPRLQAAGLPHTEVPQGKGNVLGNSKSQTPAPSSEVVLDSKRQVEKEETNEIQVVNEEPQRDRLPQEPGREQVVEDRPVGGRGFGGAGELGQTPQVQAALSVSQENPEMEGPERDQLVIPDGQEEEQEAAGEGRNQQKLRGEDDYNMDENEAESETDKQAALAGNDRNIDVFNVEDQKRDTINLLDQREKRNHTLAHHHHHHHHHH
The experiment is described as follows: Protein ELISA on sGP73-His. Conditions: plates coated with sGP73; absorbance 450 nm. Format: binding. On the procedure:
(§2) 293HEK cells were either transfected with cDNA containing full length GP73 AA 1-401 C-terminal tagged with 10×HIS-Tag or with a GP73 ΔN variant containing AA 36 to 401 with a R52A mutation, resulting in a non-cleavable variant, C-terminal tagged with 10×HIS-Tag (GP73-His AVRR). In both constructs a secretion signal was added in frame to the N-terminus. The supernatant of the full length GP73 expressing cells contains sGP73-10×His, encompassing GP73 AA56 to 401 (sGP73; SEQ ID NO: 40), that has been proteolytically cleaved by furin or another protease at AA 55. The supernatant of the GP73 ΔN variant contains GP73-10×His AVRR, encompassing GP73 AA36 to 401 (GP73 AVRR; SEQ ID NO: 41) as shown in FIG. 20. Only the latter of the two constructs contains the rGP73 epitope. Both proteins were isolated by IMAC.
(§3) ELISA was carried out in 96 well plates coated overnight with sGP73 or GP73 AVRR and blocked with 2% gelatine. Antibodies 8A10, G2-2opti (IgG2a) or isotype control antibody were applied, incubated for 1.5 hours and washed away. A secondary Horse radish peroxidase labeled anti mouse antibody was added for 1 hour and after extensive washing a chromogenic substrate (TMB Amersham) was applied to detect peroxidase.

The target of experiment [7] is T5, GP73 AVRR (GP73 AA36 to 401, R52A) (Homo sapiens, UniProt Q8NBJ4, R52A).
T5 construct: contains GP73-10×His AVRR, encompassing GP73 AA36 to 401 (GP73 AVRR); made in house; host or cells: 293HEK cells, isolated from the supernatant by IMAC
T5 sequence (Q8NBJ4 with tags, fused parts or gaps R52A): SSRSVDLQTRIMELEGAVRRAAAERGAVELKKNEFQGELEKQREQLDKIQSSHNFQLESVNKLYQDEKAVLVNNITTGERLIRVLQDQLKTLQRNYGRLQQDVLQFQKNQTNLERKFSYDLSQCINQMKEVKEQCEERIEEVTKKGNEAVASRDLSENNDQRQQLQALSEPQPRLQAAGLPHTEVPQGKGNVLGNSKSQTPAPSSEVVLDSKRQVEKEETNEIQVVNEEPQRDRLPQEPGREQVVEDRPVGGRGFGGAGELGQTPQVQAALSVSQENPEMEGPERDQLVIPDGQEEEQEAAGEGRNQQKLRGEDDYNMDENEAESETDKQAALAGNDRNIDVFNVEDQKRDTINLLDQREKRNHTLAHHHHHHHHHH
Put plainly: Protein ELISA on GP73-His AVRR. The note with it: plates coated with GP73 AVRR; absorbance 450 nm. Format: binding. The procedure:
as §2, §3

Where a SMILES comes first, the peptide text is derived from it. [ ]: non-standard residue; d: D form. Dolaproine = CO[C@@H]([C@@H]1CCCN1)[C@@H](C)C(=O)O; Dil = CC[C@H](C)[C@H](NC)[C@@H](CC(=O)O)OC; NMeV = CN[C@H](C(=O)O)C(C)C

Regarding `CC[C@H](C)[C@@H]([C@@H](CC(=O)N1CCC[C@H]1[C@H](OC)[C@@H](C)C(=O)N[C@@H](Cc1ccccc1)C(=O)O)OC)N(C)C(=O)[C@@H](NC(=O)[C@@H](NC)C(C)C)C(C)C` [MMAF, monomethylauristatin F] (H-[NMeV]V[Dil][Dolaproine]F-OH), the IC50 (usually the concentration that gives 50% inhibition) in experiment [1] stood at 277 nM.

B1: G2-1: scFv clone with human IgG1 heavy and human Igk light constant regions; VH/VL SEQ ID NO: 10 and 11; binds rGP73 (antibody, V domains shown)
VH: EVQLLESGGGVVQPGRSLRLSCAASGFTFSSYAMSWVRQAPGKGLEWVSVISYDGSNKAYADSVKGRFTISRDNSKNTLYLQMNSLRAEDTAVYYCARGRSYYDSSGYLFDYWGQGTLVTVSS
VL: DIQMTQPHSVSESVGKTVIITCTGGGGSIDTNYVQWYQQRPGSAPVTLIYEDDQRPFGVPDRFSAAIDTSSSSASLTISGLTAEDEATYYCQSSHSTAVVFGGGTKVEIK
modifications: human IgG1 and Igk constant regions not cited; G2-1 heavy chain variable region (VH); G2-1 light chain variable region (VL)
As to B1, in experiment [2], the “koff, measurement 1 + 2 mean” value turned out to be 0.001981 s⁻¹ and the “kon, measurement 1 + 2 mean” value came to 635200 M⁻¹ s⁻¹. The “competition with G2-2-HRP for peptide binding” value in experiment [3] was “Competitive inhibition”. The “pH dependency of binding to peptide AA 36-55 of GP73” value in experiment [4] was “Stable binding”. Also, the “Furin cleavage of GP73 after preincubation with antibody” value in experiment [5] is listed as “significant reduction in Furin cleavage”.

B2: G2-2opti (IgG2a): chimeric human/murine version of G2-2opti with murine constant domains (antibody, V domains shown)
VH: QVQLVQSGGGVVQPGRSLRLSCAASGFTFSSYGMHWVRQAPGKGLEWVAVISYDGSNKYYADSVKGRFTISRDNSKNTLYLQMNSLRAEDTAVYYCAREGSAGMDVWGQGTTVTVSS
VL: QAVLTQPSSLSASPGASASLTCTLRSDISVGFHRIYWYQQKPGSPPQYLLRYKSDSDKQQGSGVPSRFSGSKDASANAGILLISGLQSDDEADYYCVIWHTSGVVFGGGTKLTVL
B2: the “binding to sGP73 (ELISA)” value in experiment [6] is “not to sGP73”. In addition, in experiment [7], the “binding to GP73 AVRR (ELISA)” value is given as “binds to GP73 AVRR”.
